Assay results from US20250382373A1, “ANTI-EGFR/MET ANTIBODIES AND USES THEREOF” (Biocytogen Pharmaceuticals (Beijing) Co., Ltd., priority 2022, published 2025).
Like-named read-outs stand apart in the source and are kept apart here.

Columns and labels:
[1] = target: monkey EGFR on CHO-S-fasEGFR cells (monkey (crab-eating macaque; Macaca fascicularis)) (UniProt P55245); test: flow cytometry on CHO-S-fasEGFR cells (evaluated as No binding)
[2] = target: monkey MET on fasMET-NIH3T3 cells (monkey (Macaca fascicularis)); test: flow cytometry on fasMET-NIH3T3 cells (evaluated as No binding)
[3] = target: monkey MET on fasMET-NIH3T3 cells (monkey (Macaca fascicularis)); test: as above; remark: listed apart in the source
[4] = target: human MET on hMET-NIH3T3 cells (human) (UniProt P08581); test: flow cytometry on hMET-NIH3T3 cells (evaluated as No binding)
[5] = target: dog MET on dMET-NIH3T3 cells (dog (Canis lupus, printed 'Cans lupus')) (UniProt Q75ZY9); test: flow cytometry on dMET-NIH3T3 cells (evaluated as No binding)
[6] = target: human EGFR on CHO-S-hEGFR cells (human) (UniProt P00533); test: flow cytometry on CHO-S-hEGFR cells (evaluated as No binding)
[7] = target: monkey EGFR on CHO-S-fasEGFR cells (monkey (crab-eating macaque; Macaca fascicularis)) (UniProt P55245); test: flow cytometry on CHO-S-fasEGFR cells (evaluated as No binding); remark: listed apart in the source
[8] = target: human MET on SNU-5 cells (human) (UniProt P08581); test: flow cytometry on SNU-5 cells (evaluated as No binding)
[9] = target: His-tagged monkey MET (monkey); test: SPR (Biacore 8K), Protein A chip

Chain of monkey MET on fasMET-NIH3T3 cells (monkey (Macaca fascicularis)) (chain, as listed by the source limits assumed): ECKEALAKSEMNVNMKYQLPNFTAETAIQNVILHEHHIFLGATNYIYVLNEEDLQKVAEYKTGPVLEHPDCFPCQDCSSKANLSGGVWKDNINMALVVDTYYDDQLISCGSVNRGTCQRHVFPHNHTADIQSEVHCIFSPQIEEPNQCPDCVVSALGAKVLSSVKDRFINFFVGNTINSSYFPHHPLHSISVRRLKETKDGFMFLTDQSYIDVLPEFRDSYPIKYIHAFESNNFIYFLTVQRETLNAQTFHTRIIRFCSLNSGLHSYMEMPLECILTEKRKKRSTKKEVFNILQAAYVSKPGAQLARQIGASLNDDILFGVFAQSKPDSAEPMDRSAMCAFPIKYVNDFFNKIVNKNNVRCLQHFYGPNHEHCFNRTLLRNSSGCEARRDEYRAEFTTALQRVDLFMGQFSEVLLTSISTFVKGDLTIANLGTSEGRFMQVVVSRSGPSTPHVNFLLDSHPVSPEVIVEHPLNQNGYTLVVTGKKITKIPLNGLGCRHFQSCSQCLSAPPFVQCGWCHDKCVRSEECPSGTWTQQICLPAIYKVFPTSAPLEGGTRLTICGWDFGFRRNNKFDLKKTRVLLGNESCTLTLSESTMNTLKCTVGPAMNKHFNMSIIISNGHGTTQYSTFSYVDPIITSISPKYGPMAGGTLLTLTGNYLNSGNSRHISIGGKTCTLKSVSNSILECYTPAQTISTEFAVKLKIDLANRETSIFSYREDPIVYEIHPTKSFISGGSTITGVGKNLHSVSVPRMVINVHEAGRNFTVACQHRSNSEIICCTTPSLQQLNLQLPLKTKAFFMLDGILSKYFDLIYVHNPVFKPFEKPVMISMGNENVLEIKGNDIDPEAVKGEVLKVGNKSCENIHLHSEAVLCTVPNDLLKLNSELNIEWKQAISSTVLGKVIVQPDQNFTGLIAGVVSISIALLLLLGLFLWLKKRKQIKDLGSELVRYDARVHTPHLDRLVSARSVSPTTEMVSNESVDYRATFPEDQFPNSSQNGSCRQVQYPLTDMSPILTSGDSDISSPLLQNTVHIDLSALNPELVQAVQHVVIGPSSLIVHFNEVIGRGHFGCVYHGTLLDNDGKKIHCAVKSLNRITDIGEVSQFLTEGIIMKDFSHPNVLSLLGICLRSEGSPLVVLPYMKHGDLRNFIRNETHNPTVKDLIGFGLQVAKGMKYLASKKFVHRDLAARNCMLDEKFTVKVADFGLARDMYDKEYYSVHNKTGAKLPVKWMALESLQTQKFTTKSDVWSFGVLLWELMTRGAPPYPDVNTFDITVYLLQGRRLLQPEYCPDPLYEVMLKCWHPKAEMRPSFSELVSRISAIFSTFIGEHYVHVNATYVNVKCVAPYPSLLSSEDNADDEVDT
Chain of human MET on hMET-NIH3T3 cells (human) (P08581 25-1390 limits assumed): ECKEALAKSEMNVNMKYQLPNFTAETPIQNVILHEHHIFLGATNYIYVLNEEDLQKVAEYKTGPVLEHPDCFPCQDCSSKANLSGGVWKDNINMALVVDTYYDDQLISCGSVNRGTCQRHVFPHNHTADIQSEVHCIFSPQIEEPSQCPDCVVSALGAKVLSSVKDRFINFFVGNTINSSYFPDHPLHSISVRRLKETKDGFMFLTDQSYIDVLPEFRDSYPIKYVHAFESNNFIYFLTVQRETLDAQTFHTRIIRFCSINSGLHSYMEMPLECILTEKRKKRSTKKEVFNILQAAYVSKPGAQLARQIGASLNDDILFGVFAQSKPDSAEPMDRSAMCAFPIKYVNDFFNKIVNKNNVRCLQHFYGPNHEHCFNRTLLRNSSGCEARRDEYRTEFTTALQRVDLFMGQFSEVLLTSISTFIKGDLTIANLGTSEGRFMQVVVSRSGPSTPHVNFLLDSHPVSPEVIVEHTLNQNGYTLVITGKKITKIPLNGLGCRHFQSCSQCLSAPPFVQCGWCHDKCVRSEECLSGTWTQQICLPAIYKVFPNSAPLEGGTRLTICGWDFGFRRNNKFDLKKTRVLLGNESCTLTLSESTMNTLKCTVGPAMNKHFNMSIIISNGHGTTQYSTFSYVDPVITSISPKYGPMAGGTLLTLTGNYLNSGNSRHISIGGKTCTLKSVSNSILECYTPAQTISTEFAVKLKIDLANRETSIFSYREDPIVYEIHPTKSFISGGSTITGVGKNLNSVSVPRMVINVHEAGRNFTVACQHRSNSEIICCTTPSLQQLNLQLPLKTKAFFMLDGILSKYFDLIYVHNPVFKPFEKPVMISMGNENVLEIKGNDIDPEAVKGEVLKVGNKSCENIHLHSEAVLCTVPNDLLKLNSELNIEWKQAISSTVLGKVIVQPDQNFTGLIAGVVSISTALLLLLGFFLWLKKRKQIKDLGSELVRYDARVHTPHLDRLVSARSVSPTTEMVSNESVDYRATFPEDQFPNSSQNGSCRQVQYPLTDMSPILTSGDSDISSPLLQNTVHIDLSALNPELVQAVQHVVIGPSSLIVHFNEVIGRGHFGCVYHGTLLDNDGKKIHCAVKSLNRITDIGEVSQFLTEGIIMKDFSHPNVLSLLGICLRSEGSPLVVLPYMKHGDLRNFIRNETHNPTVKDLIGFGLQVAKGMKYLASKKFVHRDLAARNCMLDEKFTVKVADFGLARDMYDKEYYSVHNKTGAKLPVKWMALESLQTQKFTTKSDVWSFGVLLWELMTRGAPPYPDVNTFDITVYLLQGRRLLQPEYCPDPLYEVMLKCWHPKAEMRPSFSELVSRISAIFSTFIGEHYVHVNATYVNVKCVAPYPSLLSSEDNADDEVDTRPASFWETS
Chain of human MET on SNU-5 cells (human) (P08581 25-1390): as the sequence (P08581 25-1390 limits assumed) above

Row | Substance | Percentage of Positive Cells [1] | Percentage of Positive Cells [2] | Percentage of Positive Cells [3] | Percentage of Positive Cells [4] | Percentage of Positive Cells [5] | Percentage of Positive Cells [6] | Percentage of Positive Cells [7] | Percentage of Positive Cells [8] | Kd [9] | koff [9] | kon [9]
1 | NC | 0.2% | 0.8% | 1.29% | 1.01% | 0.29% | 0% | 0.65% | 2.5% |  |  | 
2 | Telisotuzumab analog (antibody) |  |  |  |  |  |  |  |  | 1.5 nM | 9.41e-05 s⁻¹ | 62600 M⁻¹ s⁻¹
